{"source": "patent US20140341843A1", "about": "(ELEVEN BIOTHERAPEUTICS, published 2014)", "biological_target": "T1, soluble recombinant human IL-1RI (corresponding to the extracellular domain of IL-1RI) (human, UniProt P14778 18-336)", "T1 construct": "extracellular domain; also called interleukin-1 receptor I; IL-1R1 receptor", "T1 sequence (looked up)": "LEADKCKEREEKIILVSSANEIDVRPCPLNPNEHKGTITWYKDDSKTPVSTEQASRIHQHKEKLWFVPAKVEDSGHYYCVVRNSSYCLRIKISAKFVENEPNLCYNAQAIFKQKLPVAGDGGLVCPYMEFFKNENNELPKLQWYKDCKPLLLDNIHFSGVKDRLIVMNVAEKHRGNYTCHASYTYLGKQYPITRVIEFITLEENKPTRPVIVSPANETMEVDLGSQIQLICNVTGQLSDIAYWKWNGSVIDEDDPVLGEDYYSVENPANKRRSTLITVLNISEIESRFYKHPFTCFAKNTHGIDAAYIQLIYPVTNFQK", "assay": "Kd to the IL-1R1 receptor as listed in Table 15; method not restated, values are the SPR values of Table 7 rounded"}
{"binder": "P02 (designed binder, IL-1β/IL-1Ra chimera expressed in E. coli; also called P02 domain; chimeric cytokine domain P02) APVRSLAFRIWDVNQKTFYLRNNQLVAGYLQGPNVNLEEKIDVSFVQGEESNDKIPVALGIHGGKMCLSCVKSGDETRLQLEAVDPKNYPKKKMEKRFVFNKIEINNKLSFESAACPGWFLCTAMEADQPVSLTNMPDEGVMVTKFYMQFVSS", "values": [{"measurement": "Kd", "result": 0.64, "unit": "nM"}]}
